# From patent US20140120109A1 (Regeneron, published 2014)
# T1: mouse TL1A, soluble, CHO-expressed, residues 76-252 of SEQ ID NO:250 with N-terminal His6-tag (mouse, UniProt Q5UBV8 76-252)
# T1 construct: also called mTL1A; mTL1A (CHO)
# T1 sequence: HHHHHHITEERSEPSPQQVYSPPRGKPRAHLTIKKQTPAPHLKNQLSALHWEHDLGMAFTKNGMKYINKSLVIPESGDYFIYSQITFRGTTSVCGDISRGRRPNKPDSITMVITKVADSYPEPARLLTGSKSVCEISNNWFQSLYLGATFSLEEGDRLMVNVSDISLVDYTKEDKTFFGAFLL
# T2: full length rat TL1A expressed on HEK293 cells (rat, UniProt Q8K3Y7 1-252)
# T2 sequence: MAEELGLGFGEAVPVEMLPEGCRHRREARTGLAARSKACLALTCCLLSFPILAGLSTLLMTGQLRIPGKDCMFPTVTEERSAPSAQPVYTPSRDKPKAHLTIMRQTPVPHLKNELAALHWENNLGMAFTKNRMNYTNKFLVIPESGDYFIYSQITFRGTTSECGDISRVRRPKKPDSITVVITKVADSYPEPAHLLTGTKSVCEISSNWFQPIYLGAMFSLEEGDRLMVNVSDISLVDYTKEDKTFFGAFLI
# T3: full length human TL1A expressed on HEK293 cells (human, UniProt O95150 1-251)
# T3 construct: also called HEK293/hTL1A; cell-surface hTL1A
# T3 sequence: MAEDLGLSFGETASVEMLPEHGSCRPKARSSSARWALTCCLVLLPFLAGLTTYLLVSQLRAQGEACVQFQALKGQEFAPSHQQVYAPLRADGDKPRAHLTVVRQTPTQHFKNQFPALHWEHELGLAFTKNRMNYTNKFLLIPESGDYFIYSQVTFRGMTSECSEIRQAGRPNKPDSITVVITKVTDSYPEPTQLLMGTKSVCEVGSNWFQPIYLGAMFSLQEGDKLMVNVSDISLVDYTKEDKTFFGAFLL
# B1: H4H1817N (antibody, human IgG4 S228P, V domains shown)
# VH: QVQLQQWGAGLLKPSETLSLTCAVSGGSFSDYFWTWIRQPPGKGLEWIGEISHSGRTNYNPSLKSRVTISVDTSMSQFSLKMTSVTAADSAVYYCARDYPNWVFDYWGQGTLVTVSS
# VL: EIELTQSPGTLSLSPGEGATLSCRASQSVFNSYLAWYQQKPGQAPRLLIYGASRRATGIPDRFSGSGSGTDFTLTISRLEPGDFAVYFCQQYGNSPLTFGGGTKVEIK
# notes: human IgG4(S108P) form of H2M1817N
# B2: H4H1805N (antibody, human IgG4 S228P, V domains shown)
# VH: QVQLQQWGAGLLKPSETLSLTCAVYGGSFTGFYWSWIRQPPGKGLEWIGEINHRGNTNYNPSLKSRVTMSVDTSKNQFSLNMISVTAADTAMYFCASPFYDFWSGSDYWGQGTLVTVSS
# VL: DIMLTQTPLTSPVTLGQPASISCKSSQSLVHSDGNTYLSWLQQRPGQPPRLLFYKISNRFSGVPDRFSGSGAGTDFTLKISRVEAEDVGVYYCMQATQFPLTFGGGTKVEIK
# notes: human IgG4(S108P) form of H2M1805N
# B3: H4H1704N (antibody, human IgG4 S228P, V domains shown)
# VH: EVQLVESGGGLVQPGGSLRLSCAVSGFTFSSYWMSWVRQAPGKGLEWVANIKEDGSEKNYVDSVKGRFTLSSDNAKNSLYLQMNSLRAEDTAVYYCAREDYDSYYKYGMDVWGQGTAVIVSS
# VL: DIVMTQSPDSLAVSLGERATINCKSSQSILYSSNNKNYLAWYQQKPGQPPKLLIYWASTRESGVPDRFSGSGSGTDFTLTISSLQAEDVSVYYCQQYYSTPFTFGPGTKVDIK
# notes: human IgG4(S108P) form of H2M1704N
# B4: H4H1681N (antibody, human IgG4 S228P, V domains shown)
# VH: EVQLLESGGGLVQPGKSLRLSCAVSGFTFSTYGMNWVRQAPGKGLEWVSSISGTGRTTYHADSVQGRFTVSRDNSKNILYLQMNSLRADDTAVYFCTKERGDYYYGVFDYWGQGTLVTVSS
# VL: DIQMTQSPSTLSASVGDRVTITCRASQTISSWLAWYQQTPEKAPKLLIYAASNLQSGVPSRFSGSGSGTEFTLTISSLQPDDFATYYCQQYHRSWTFGQGTKVEIT
# B5: H4H1725P (antibody, human IgG4 S228P, V domains shown)
# VH: QVQLVQSGAEVKKPGASVKVSCKASGYTFTGYYMHWVRQAPGQGLEWMGWIKPKSGGTNYVQKFQGRVTMTRDTSINTAYMELNNLKSDDTAVYYCATGGSQDASDFWGQGTMVTVSS
# VL: DIQMTQSPSSVSASVGGRVTITCRASQDISIWLAWYQQKPGKAPNLLIYAASSLQSGVPSRFSGSGSGTDFTLTISSLQPEDFATYYCQQADSFPLTFGGGTKVEIK
# B6: H4H1804N (antibody, human IgG4 S228P, V domains shown)
# VH: QVQLHQWGAGLLKPSETLSLTCAVSGVSFSDYHWAWIRQSPGKGLEWIGDINHRGRTNYNPSLKSRVTISLDTSGNPFSLKLTSVTAADTAVYYCARDFPNWVFDSWGQGILVTVSS
# VL: EIVLSQSPGTLSLSPGERATLSCRASQSVSSSFLAWYQQYPGQAPRLLIYGASRRATGIPDRFRGSGSGTDFTLTISRLEPEDFAVYYCQQYGSSPLTFGGGTKVENK
# notes: human IgG4(S108P) form of H2M1804N
# B7: H4H1745P (antibody, human IgG4 S228P, V domains shown)
# VH: EVQLVESGGGLVQPGGSLRLSCAASGFTFSSYAMTWVRQAPGKGLEWVSGVSGRGGSTYYADSVKGRFTISRDNSKNTLYLQMNSLRAEDTAVYYCAYWDISSFDYWGQGTLVTVSS
# VL: DIQLTQSPSFLSASVGDRVTITCWASQGISTYLAWYQQKPGKTPKLLIYAASTLQSGVPSRFSGSGSGTDFTLTISSLQPEDFATYYCQQFNSYPLTFGGGTKVEIK
# B8: H4H1742P (antibody, human IgG4 S228P, V domains shown)
# VH: EVQLVESGGGLVQPGGSLRLSCAASGFTFSNYVMNWVRQAPGKGLEWVSVISGSGGSTHYADSVKGRFTISRDNSKDALYLQMNSLRAEDTAVYYCAKGPLEAYYYYNGMDVWGQGTTVTVSS
# VL: DIQLTQSPSFLSASVGDRVTITCWASQAISSYLAWYQHKPGRAPKLLIYSTSTLQSGVPSRFSGSGSGTEFTLTISSLQPEDFATYYCQQLNSYPTFGQGTKLEIK
# Target: T1, mouse TL1A, soluble, CHO-expressed, …
# Assay: SPR 25C, mAb captured
# In short: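 Biacore T100 SPR with captured mAb and soluble TL1A/Fhm analyte; ka and kd fitted to a 1:1 model assuming monomeric TL1A. KD = kd/ka; t1/2 (min) = ln2/(60·kd).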
binding result,Kd,t1/2,Binder
no binding (tested: up to 100 nM),,,B1
no binding (tested: up to 100 nM),,,B2
,0.194 nM,46 min,B3
no binding (tested: up to 100 nM),,,B4

# Target: T2, full length rat TL1A expressed on …
# Assay: cell-based or functional assay
row,"IC50, reporter + 10,000 TL1A cells",Binder
1,190 nM,B5
2,3.99 nM,B6
3,95 nM,B1

# Target: T3, full length human TL1A expressed on …
# Assay: flow, HEK293/hTL1A, mAb 1 ug/ml + 1 ug/ml soluble hTL1A
# Experimental: (§1) Human embryonic kidney 293 cells stably transfected to over-express cell-surface hTL1A were first stained in a flow cytometric experiment with eight anti-hTL1A antibodies at four concentrations (1, 0.1, 0.01, and 0.003 μg/ml). […] The lowest antibody concentration providing significant staining levels was then used in a competition binding experiment. A negative isotype control antibody (human IgG4) was used at 1 μg/ml to define the background signal. For the competition experiment, eight antibody samples, at the minimal concentrations identified above, were first treated with soluble hTL1A expressed from CHO cells at concentrations ranging from 0.03 μg/ml to 10 μg/ml. After pre-incubation for 30 min on ice, the antibody/hTL1A mixture was added to 293/HEK-hTL1A cells that had been isolated by centrifugation in a 96-well conical plate. After incubation for an additional 10 minutes on ice, the cells were washed. The secondary reagent, anti-h Fcγ-APC F(ab′)₂, was added to all wells at a 200-fold dilution to detect bound antibodies. Samples were incubated for 15 minutes on ice, away from light, and then washed. Cells were processed on an BD™ LSR II Flow Cytometer (BD Biosciences) to detect anti-hTL1A antibodies bound to the cell surface, and data were analyzed using FlowJo software (version 8.8.6; Tree Star Inc.). Maximum signal: Anti-hTL1A antibody binding in the absence of soluble hTL1A; Minimum signal: Signal recorded when […] of isotype control antibody was added in place of the anti-hTL1A antibody. NT: Not tested.
row,MFI,Binder
1,29.1,B1
2,80.9,B4
3,26.9,B7
4,32.7,B8

# Target: T3, full length human TL1A expressed on …
# Assay: flow, HEK293/hTL1A, mAb 0.1 ug/ml + 3 ug/ml soluble hTL1A
# Experimental: as §1
row,MFI,Binder
1,34.9,B5
2,28.9,B6
3,23.6,B2
4,22.6,B3

# Target: T3, full length human TL1A expressed on …
# Assay: flow, HEK293/hTL1A, mAb 1 ug/ml + 0.1 ug/ml soluble hTL1A
# Experimental: as §1
row,MFI,Binder
1,97.2,B1
2,327,B4
3,93.1,B7
4,79.4,B8

# Target: T3, full length human TL1A expressed on …
# Assay: flow, HEK293/hTL1A, mAb 1 ug/ml + 0.03 ug/ml soluble hTL1A
# Experimental: as §1
row,MFI,Binder
1,85.3,B1
2,318,B4
3,80,B7
4,126,B8

# Target: T3, full length human TL1A expressed on …
# Assay: flow, HEK293/hTL1A, mAb 0.1 ug/ml + 0.1 ug/ml soluble hTL1A
# Experimental: as §1
row,MFI,Binder
1,84.5,B5
2,51.1,B6
3,60.2,B2
4,132,B3
